The data set concerns the molecule itself. The experiment in a line: SEC; Superdex-200 (1×30 cm) in buffer A (50 mM Tris-HCl pH 7.6, 100 mM KCl, 5 mM DTT, 10% glycerol, 0.01% Triton X-100) with 15 mM ATP and 10 mM MgCl2; protein pre-incubated with 15 mM ATP and 10 mM MgCl2 for 30 min at 25°C; monomer to hexamer; fractions checked by SDS-PAGE. Background: In gel filtration, larger molecules generally elute earlier.

B1: ClpC1-Δ3 (N-terminal truncated mutant, both N-terminal domains deleted) (domain or fragment)
chain: REGEGVAAQVLVKLGAELTRVRQQVIQLLSGYQGKEAAEAGTGGRGGESGSPSTSLVLDQFGRNLTAAAMEGKLDPVIGREKEIERVMQVLSRRTKNNPVLIGEPGVGKTAVVEGLAQAIVHGEVPETLKDKQLYTLDLGSLVAGSRYRGDFEERLKKVLKEINTRGDIILFIDELHTLVGAGAAEGAIDAASILKPKLARGELQTIGATTLDEYRKYIEKDAALERRFQPVQVGEPTVEHTIEILKGLRDRYEAHHRVSITDAAMVAAATLADRYINDRFLPDKAIDLIDEAGARMRIRRMTAPPDLREFDEKIAEARREKESAIDAQDFEKAASLRDREKTLVAQRAEREKQWRSGDLDVVAEVDDEQIAEVLGNWTGIPVFKLTEAETTRLLRMEEELHKRIIGQEDAVKAVSKAIRRTRAGLKDPKRPSGSFIFAGPSGVGKTELSKALANFLFGDDDALIQIDMGEFHDRFTASRLFGAPPGYVGYEEGGQLTEKVRRKPFSVVLFDEIEKAHQEIYNSLLQVLEDGRLTDGQGRTVDFKNTVLIFTSNLGTSDISKPVGLGFSKGGGENDYERMKQKVNDELKKHFRPEFLNRIDDIIVFHQLTREEIIRMVDLMISRVAGQLKSKDMALVLTDAAKALLAKRGFDPVLGARPLRRTIQREIEDQLSEKILFEEVGPGQVVTVDVDNWDGEGPGEDAVFTFTGTRKPPAEPDLAKAGAHSAGGPEPAAR
In the case of B1, the binding result was “binds”.

(Values after paper PMC3527473, “The C-Terminus of ClpC1 of Mycobacterium tuberculosis Is Crucial for Its Oligomerization and Function” (PLoS ONE, 2012).)
